The source of these data is paper PMC11102866, “Nucleosome-bound NR5A2 structure reveals pioneer factor mechanism by DNA minor groove anchor competition”.

For data set [1], the target named is T1, NR5A2 D159A (Homo sapiens, UniProt O00482 1-541, D159A). In words: EMSA; similar to wild type; EMSA: 20 mM Tris-HCl pH 7.5, 120 mM NaCl, 1 mM MgCl2, 10 uM ZnCl2, 1 mM DTT, 100 ug/ml BSA, room temperature, 30 min; 50 nM DNA or nucleosome. The conditions noted are these: protein: recombinant; tags: N-terminal His6-TEV, His6 removed with TEV protease.
The next data set deals with NR5A2 wild type (Homo sapiens, UniProt O00482 1-541). Briefly: EMSA; EMSA: 20 mM Tris-HCl pH 7.5, 120 mM NaCl, 1 mM MgCl2, 10 uM ZnCl2, 1 mM DTT, 100 ug/ml BSA, room temperature, 30 min; 50 nM DNA or nucleosome. The conditions noted are these: protein: recombinant; tags: N-terminal His6-TEV, His6 removed with TEV protease.
Data set [2] deals with T1, NR5A2 D159A. In words: EMSA; slightly less than wild type, not significant; EMSA: 20 mM Tris-HCl pH 7.5, 120 mM NaCl, 1 mM MgCl2, 10 uM ZnCl2, 1 mM DTT, 100 ug/ml BSA, room temperature, 30 min; 50 nM DNA or nucleosome. The conditions noted are these: protein: recombinant; tags: N-terminal His6-TEV, His6 removed with TEV protease; blunt.

B1: 149 bp endogenous mouse DNA (dsDNA)
DNA 1: GGACTGGGACTTCTAAAACAAGACCTTAGTTAGGTGTGGTGCTGCATGCCTTTAATCTCAGCAGTCTGGAGGCAGAGACAGGGAGGTCTCTATGAGTTCAAGGCCAGCCTAATCTACACAGTGAGTTCCAGGACAGTCAGGGCTATAGA
DNA 2: TCTATAGCCCTGACTGTCCTGGAACTCACTGTGTAGATTAGGCTGGCCTTGAACTCATAGAGACCTCCCTGTCTCTGCCTCCAGACTGCTGAGATTAAAGGCATGCAGCACCACACCTAACTAAGGTCTTGTTTTAGAAGTCCCAGTCC
B1: the binding result with NR5A2 D159A [1] and with NR5A2 wild type was “binds” throughout.

B2: 25 bp DNA with Nr5a2 consensus motif (dsDNA)
DNA 1: GAGAGAGTCAAGGCCATGGCTCACT
DNA 2: AGTGAGCCATGGCCTTGACTCTCTC
B2: the binding result with NR5A2 D159A [2] was “binds”.
